Measurements from paper PMC6144819 (Nucleic Acids Research, 2018).

Molecular target: T1, Drosophila SUMO-TRAX (WT) (Drosophila, UniProt Q9VF77 1-298)
T1 sequence (looked up): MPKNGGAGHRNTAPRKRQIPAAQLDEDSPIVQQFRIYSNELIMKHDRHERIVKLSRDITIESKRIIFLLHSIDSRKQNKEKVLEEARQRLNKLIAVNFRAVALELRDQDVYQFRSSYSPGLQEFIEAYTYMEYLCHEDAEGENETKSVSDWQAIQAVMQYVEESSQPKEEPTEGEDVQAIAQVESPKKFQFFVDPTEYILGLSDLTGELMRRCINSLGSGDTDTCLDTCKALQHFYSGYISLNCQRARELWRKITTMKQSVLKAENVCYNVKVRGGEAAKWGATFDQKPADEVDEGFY
Assay: cryo-EM structure

B1: Drosophila Translin (natural protein, UniProt Q7JVK6 1-235, looked up)
chain: MSNFVNLDIFSNYQKYIDNEQEVRENIRIVVREIEHLSKEAQIKLQIIHSDLSQISAACGLARKQVELCAQKYQKLAELVPAGQYYRYSDHWTFITQRLIFIIALVIYLEAGFLVTRETVAEMLGLKISQSEGFHLDVEDYLLGILQLASELSRFATNSVTMGDYERPLNISHFIGDLNTGFRLLNLKNDGLRKRFDALKYDVKKIEEVVYDVSIRGLSSKEKDQQEEPAVPATE
stoichiometry N: 1 TRAX per Translin (4:4)
